Starred links: 1 amine or outer side, 2 acyl side, 3 side chain; linkers in the order of their positions; H or OH if unused. Positions of bridges follow the written chain, without caps; N, C: chain ends. Non-standard residues stand in square brackets, D forms with d. Primed or numbered codes have the meaning given here. (Me2NPrPip)GlnR = (S)-2-amino-5-(4-(3-(dimethylamino)propyl)piperazin-1-yl)-5-oxopentanoic acid, CN(C)CCCN1CCN(C(=O)CC[C@H](N[*:1])C(=O)[*:2])CC1; PyrS2″ = (S)-3-amino-1-((pent-4-en-1-yloxy)carbonyl)pyrrolidine-3-carboxylic acid (stapling residue), C=CCCCOC(=O)N1CC[C@@](N[*:1])(C(=O)[*:2])C1; (RDMAPyr)GlnR = (S)-2-amino-5-((R)-3-(dimethylamino)pyrrolidin-1-yl)-5-oxopentanoic acid, CN(C)[C@@H]1CCN(C(=O)CC[C@H](N[*:1])C(=O)[*:2])C1; B5(4) = 2,2-bis(4-pentenyl)glycine = 2-amino-2-(pent-4-en-1-yl)hept-6-enoic acid (stitching residue), C=CCCCC(CCCC=C)(N[*:1])C(=O)[*:2]; (4PyPip)GlnR = (S)-2-amino-5-oxo-5-(4-(pyridin-4-yl)piperazin-1-yl)pentanoic acid, O=C(CC[C@H](N[*:1])C(=O)[*:2])N1CCN(c2ccncc2)CC1; (EtSSpy)GluE = (S)-2-amino-5-oxo-5-(2-(pyridin-2-yldisulfaneyl)ethoxy)pentanoic acid, O=C(CC[C@H](N[*:1])C(=O)[*:2])OCCSSc1ccccn1; TfeGA = (S)-2-amino-3-((carboxymethyl)(2,2,2-trifluoroethyl)amino)propanoic acid, O=C([C@H](CN(CC(=O)[*:3])CC(F)(F)F)N[*:1])[*:2]; PyrS2 = (S)-3-amino-1-((pent-4-en-1-yloxy)carbonyl)pyrrolidine-3-carboxylic acid, C=CCCCOC(=O)N1CC[C@@](N[*:1])(C(=O)[*:2])C1; (EtSSPh)GluE = (S)-2-amino-5-oxo-5-(2-(phenyldisulfaneyl)ethoxy)pentanoic acid, O=C(CC[C@H](N[*:1])C(=O)[*:2])OCCSSc1ccccc1; (EtSSPh)AspE = (S)-2-amino-4-oxo-4-(2-(phenyldisulfaneyl)ethoxy)butanoic acid, O=C(C[C@H](N[*:1])C(=O)[*:2])OCCSSc1ccccc1; (EtSSHex)AspE = (S)-2-amino-4-(2-(hexyldisulfaneyl)ethoxy)-4-oxobutanoic acid, CCCCCCSSCCOC(=O)C[C@H](N[*:1])C(=O)[*:2]; B5(27) = 2-amino-2-(pent-4-en-1-yl)hept-6-enoic acid (two alkene side-chain arms), C=CCCCC(CCCC=C)(N[*:1])C(=O)[*:2]; B5(19) = 2-amino-2-(pent-4-en-1-yl)hept-6-enoic acid (bis(4-pentenyl)glycine), C=CCCCC(CCCC=C)(N[*:1])C(=O)[*:2]; (Ppz)GlnR = (S)-2-amino-5-oxo-5-(piperazin-1-yl)pentanoic acid, O=C(CC[C@H](N[*:1])C(=O)[*:2])N1CCN([*:3])CC1; (Morph)GlnR = (S)-2-amino-5-morpholino-5-oxopentanoic acid, O=C(CC[C@H](N[*:1])C(=O)[*:2])N1CCOCC1; GluSH = (S)-2-amino-5-mercapto-5-oxopentanoic acid, O=C(CC[C@H](N[*:1])C(=O)[*:2])S[*:3]; MorphAbu = (S)-2-amino-4-morpholinobutanoic acid, O=C([C@H](CCN1CCOCC1)N[*:1])[*:2]; Bta = N[C@@H](Cc1csc2ccccc12)C(=O)O; αAllylPro = C=CC[C@@]1(C(=O)O)CCCN1; tBuAla = CC(C)(C)C[C@H](N)C(=O)O; 3Thi = N[C@@H](Cc1ccsc1)C(=O)O; TfeGA″ = not defined here
molecular target: T1, B-cat-Halo (beta-catenin HaloTag NanoBRET construct expressed in HEK293 cells) (UniProt P35222 1-781); assay: cell-based or functional assay
T1 sequence (looked up): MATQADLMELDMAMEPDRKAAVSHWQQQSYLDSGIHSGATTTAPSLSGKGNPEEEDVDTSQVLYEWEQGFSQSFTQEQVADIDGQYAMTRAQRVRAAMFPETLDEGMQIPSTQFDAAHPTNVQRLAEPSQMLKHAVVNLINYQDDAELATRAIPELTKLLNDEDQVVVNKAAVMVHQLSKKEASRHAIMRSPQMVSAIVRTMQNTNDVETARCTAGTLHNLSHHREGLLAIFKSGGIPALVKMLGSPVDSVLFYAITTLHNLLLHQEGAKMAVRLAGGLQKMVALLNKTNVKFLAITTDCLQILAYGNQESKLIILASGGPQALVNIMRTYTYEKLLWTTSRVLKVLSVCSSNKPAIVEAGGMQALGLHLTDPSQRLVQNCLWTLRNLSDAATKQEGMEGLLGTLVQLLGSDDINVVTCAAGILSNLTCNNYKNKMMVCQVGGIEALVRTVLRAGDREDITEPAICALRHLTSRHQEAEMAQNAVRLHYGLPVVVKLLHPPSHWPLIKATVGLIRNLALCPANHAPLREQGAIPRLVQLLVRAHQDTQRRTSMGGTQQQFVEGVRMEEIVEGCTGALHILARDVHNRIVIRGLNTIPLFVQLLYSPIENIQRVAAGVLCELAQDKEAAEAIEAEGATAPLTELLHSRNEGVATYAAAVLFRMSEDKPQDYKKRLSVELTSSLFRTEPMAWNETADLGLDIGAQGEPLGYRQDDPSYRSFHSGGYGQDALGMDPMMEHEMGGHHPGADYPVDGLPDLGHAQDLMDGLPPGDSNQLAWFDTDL

Row | Binder | NanoBRET Abs IC50 [µM]
1 | Ac-[αAllylPro][(EtSSPh)AspE][tBuAla][B5(4)]DDAAFL[PyrS2″][3Thi][Bta]Q-NH2 (staple 1-4, 4-11; also: isomer composition, earlier eluting HPLC peak) [I-1952] | > 20
2 | Ac-[αAllylPro]D[tBuAla][B5(4)][(EtSSHex)AspE]DAAFL[PyrS2″][3Thi][Bta]Q-NH2 (staple 1-4, 4-11) [I-1961] | > 20
3 | Ac-[αAllylPro][(EtSSHex)AspE][tBuAla][B5(4)]DDAAFL[PyrS2″][3Thi][Bta]Q-NH2 (staple 1-4, 4-11; also: isomer composition, earlier eluting HPLC peak) [I-1959] | > 20
4 | Ac-[αAllylPro]D[tBuAla][B5(4)][(EtSSPh)AspE]DAAFL[PyrS2″][3Thi][Bta]Q-NH2 (staple 1-4, 4-11; also: isomer composition, earlier eluting HPLC peak) [I-1954] | > 20
5 | Ac-[αAllylPro]D[tBuAla][B5(19)]D[TfeGA]AAF[(Me2NPrPip)GlnR][PyrS2″][3Thi][Bta]Q-NH2 (staple 1-4, 4-11) [I-1936] | 15.7
6 | Ac-[αAllylPro]D[tBuAla][B5(4)]D[TfeGA″]AAF[(NHBn)GlnR][PyrS2″][3Thi][Bta]Q-NH2 (staple 1-4, 4-11; reading uncertain) [I-1942] | 7.9
7 | Ac-[αAllylPro]D[tBuAla][B5(4)]D[TfeGA]AAF[(Morph)GlnR][PyrS2″][3Thi][Bta]Q-NH2 (staple 1-4, 4-11) [I-1943] | 3.8

Results, then the binder that gave them:

Row | NanoBRET Abs IC50 [µM] | Binder
8 | 12.9 | Ac-[αAllylPro]D[tBuAla][B5(19)]D[TfeGA]AAF[(Ppz)GlnR][PyrS2″][3Thi][Bta]Q-NH2 (staple 1-4, 4-11) [I-1941]
9 | 28.5 | Ac-[αAllylPro]D[tBuAla][B5(4)]D[GluSH]AAFL[PyrS2″][3Thi][Bta]Q-NH2 (staple 1-4, 4-11; also: isomer composition, later eluting HPLC peak) [I-1949]
10 | 30 | Ac-[αAllylPro]D[tBuAla][B5(19)]D[TfeGA]AAF[(4PyPip)GlnR][PyrS2″][3Thi][Bta]Q-NH2 (staple 1-4, 4-11) [I-1938]
11 | 20.7 | Ac-[αAllylPro]D[tBuAla][B5(19)]D[TfeGA]AAF[(RDMAPyr)GlnR][PyrS2″][3Thi][Bta]Q-NH2 (staple 1-4, 4-11) [I-1939]
12 | > 20 | Ac-[αAllylPro][(EtSSPh)AspE][tBuAla][B5(4)]DDAAFL[PyrS2″][3Thi][Bta]Q-NH2 (staple 1-4, 4-11; also: isomer composition, later eluting HPLC peak) [I-1953]
13 | > 20 | Ac-[αAllylPro]D[tBuAla][B5(4)]D[(EtSSpy)GluE]AAFL[PyrS2″][3Thi][Bta]Q-NH2 (staple 1-4, 4-11) [I-1951]
14 | > 20 | Ac-[αAllylPro]D[tBuAla][B5(4)]D[(EtSSPh)GluE]AAFL[PyrS2″][3Thi][Bta]Q-NH2 (staple 1-4, 4-11; also: isomer composition, later eluting HPLC peak) [I-1958]
15 | 20.4 | Ac-[αAllylPro][(EtSSHex)AspE][tBuAla][B5(4)]DDAAFL[PyrS2″][3Thi][Bta]Q-NH2 (staple 1-4, 4-11) [I-1960]

molecular target: T2, B-cat-Halo (beta-catenin HaloTag fusion expressed in HEK293 cells) (UniProt P35222 1-781, HaloTag labelled with HaloTag NanoBRET 618 Ligand); assay: cell-based or functional assay
T2 sequence (looked up): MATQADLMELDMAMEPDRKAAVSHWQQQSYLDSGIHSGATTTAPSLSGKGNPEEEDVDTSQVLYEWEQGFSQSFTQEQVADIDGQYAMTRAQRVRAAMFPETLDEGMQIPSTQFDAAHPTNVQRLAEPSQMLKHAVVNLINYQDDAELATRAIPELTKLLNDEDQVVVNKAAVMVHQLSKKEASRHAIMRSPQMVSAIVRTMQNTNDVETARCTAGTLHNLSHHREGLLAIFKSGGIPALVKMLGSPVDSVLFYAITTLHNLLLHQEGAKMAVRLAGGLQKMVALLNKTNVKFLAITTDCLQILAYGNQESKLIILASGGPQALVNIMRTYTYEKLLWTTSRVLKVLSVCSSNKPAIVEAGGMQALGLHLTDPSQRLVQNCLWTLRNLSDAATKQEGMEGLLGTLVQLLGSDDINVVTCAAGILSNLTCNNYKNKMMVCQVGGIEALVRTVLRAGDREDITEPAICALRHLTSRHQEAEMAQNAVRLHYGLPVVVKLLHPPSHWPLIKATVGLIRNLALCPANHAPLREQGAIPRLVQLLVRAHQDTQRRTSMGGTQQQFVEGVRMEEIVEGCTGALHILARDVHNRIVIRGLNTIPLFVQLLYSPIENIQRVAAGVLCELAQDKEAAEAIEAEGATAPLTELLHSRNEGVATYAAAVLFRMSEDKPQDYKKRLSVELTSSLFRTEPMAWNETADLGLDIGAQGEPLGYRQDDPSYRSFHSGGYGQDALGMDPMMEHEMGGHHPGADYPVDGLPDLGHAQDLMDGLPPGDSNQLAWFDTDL

Row | Binder | NanoBRET Abs IC50 [µM]
16 | Ac-[αAllylPro]D[tBuAla][B5(27)]DDA[MorphAbu]FL[PyrS2][3Thi][Bta]Q-NH2 (staple 1-4, 4-11) [I-1504] | > 20

From patent publication US20240116985A1 (published 2024)
